Experimental findings from publication PMC12709188, “Expanding the CarD interaction network: CrsL is a novel transcription regulator in actinobacteria” (Nucleic Acids Research, 2025) are described below.

By Kd is commonly meant a measure of binding affinity in units of concentration. A high value points to a looser complex. What is called stoichiometry N is the number of molecules, sites or subunits per partner or assembly.

To fix the notation:
B1: CrsL–His (in vitro purified CrsL) (natural protein, M. smegmatis, UniProt A0R4M8 1-54, looked up)
chain: MPAKTDPADLGDVEPLADDTASQARRVVATYATDADECRMFLSMLGIGPSKTEV
notes: CrsL, small protein (predicted MW 5.7 kDa) encoded by MSMEG_5890 of M. smegmatis; 15N- or 13C,15N-labelled for NMR; also called [^15N]-CrsL; [^13C,^15N]-CrsL; source: E. coli (strain LK3499), purified (Ni-NTA, Superdex 75; for NMR Superdex 30)
B2: CarD–NT (in vitro purified CarD) (natural protein, M. smegmatis, UniProt A0R561 1-162, looked up)
chain: MIFKVGDTVVYPHHGAALIEAIETRTIKGEQKEYLVLKVAQGDLTVRVPADNAEYVGVRDVVGQEGLDKVFQVLRAPHTEEPTNWSRRYKANLEKLASGDVNKVAEVVRDLWRRDQERGLSAGEKRMLAKARQILVGELALAENTDDAKAETILDEVLAAAS
notes: CarD, transcription factor of M. smegmatis; dimer when alone (native gel); Uniformly 13C,15N-labelled for some NMR samples; also called [^13C,^15N]-CarD; source: E. coli (strain LK3209), purified (Ni-NTA, TEV protease cleavage; for NMR also Superdex 75)

Data set [1] deals with B2. Kind of data set: ITC; 27.6 μM CarD in the cell titrated by 315 μM CrsL; 27°C; 50 mM Tris–HCl, 100 mM NaCl, 0.5 mM DTT, pH 7.5; one-site binding model; triplicate. Conditions: both partners purified. (In ITC the heat of successive injections is recorded.)
Data set [2] deals with the molecule itself. Briefly: native gel or EMSA; purified CrsL, CarD and DnaK mixed in 1× STB buffer (50 mM Tris–HCl pH 8.0, 5 mM Mg acetate, 100 μM DTT, 50 mM KCl, 50 μg/ml BSA), 37°C 15 min; 8% native gel at 4°C; Coomassie stain, bands confirmed by mass spectrometry. (In general: A gel shift assay detects complexes by their altered migration in electrophoresis.)

“And” between values parts separate entries of the source, which are not always exact repeats. Equal values may be shown once.

Take B1: in data set [1], the Kd is 4.3 nM and 4.5 nM and 3.3 nM; the dH is -21 kcal/mol; the “stoichiometry N” value stood at 1.
In the case of B2, the “stoichiometry N” value in data set [2] was determined as 2.
